Laboratory results published in paper PMC9482650, “Quantitative fragmentomics allow affinity mapping of interactomes” (Nature Communications, 2022).

Columns and labels:
Test in all cases: holdup assay
Parameters in all cases: key: below the threshold = too weak to quantify, mostly under pKd 3.1 to 4
FRMPD2_2, Q68DX3 = molecular target: FRMPD2_2, Q68DX3
MAGI2_2, Q86UL8 = molecular target: MAGI2_2, Q86UL8
SCRIB_1, Q14160 = molecular target: SCRIB_1, Q14160
DLG4_3, P78352 = molecular target: DLG4_3, P78352
MAGI2_5, Q86UL8 = molecular target: MAGI2_5, Q86UL8
LDB3, O75112 = molecular target: LDB3, O75112
AHNAK1, Q09666 = molecular target: AHNAK1, Q09666
SNTA1, Q13424 = molecular target: T1, SNTA1, Q13424
T1 sequence (Q13424 82-180, limits assumed, looked up): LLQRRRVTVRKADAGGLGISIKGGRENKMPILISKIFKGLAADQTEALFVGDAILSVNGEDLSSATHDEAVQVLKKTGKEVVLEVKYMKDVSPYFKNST

GORASP1, Q9BQQ3 = molecular target: GORASP1, Q9BQQ3
GRID2IP_2, A4D2P6 = molecular target: GRID2IP_2, A4D2P6
TIAM2, Q8IVF5 = molecular target: T2, TIAM2, Q8IVF5
T2 sequence (Q8IVF5 885-986, limits assumed, looked up): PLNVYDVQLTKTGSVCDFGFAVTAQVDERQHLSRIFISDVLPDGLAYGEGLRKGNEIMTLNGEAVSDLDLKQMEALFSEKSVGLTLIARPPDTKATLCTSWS

LIN7C, Q9NUP9 = molecular target: T3, LIN7C, Q9NUP9
T3 sequence (Q9NUP9 88-185, limits assumed, looked up): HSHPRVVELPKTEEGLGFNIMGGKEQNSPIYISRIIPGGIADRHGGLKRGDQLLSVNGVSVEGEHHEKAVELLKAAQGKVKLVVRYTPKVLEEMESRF

APBA3_1, O96018 = molecular target: T4, APBA3_1, O96018
T4 sequence (O96018 389-490, limits assumed, looked up): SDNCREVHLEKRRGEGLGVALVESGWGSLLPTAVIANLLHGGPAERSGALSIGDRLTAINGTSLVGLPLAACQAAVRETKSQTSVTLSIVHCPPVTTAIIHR

HTRA3, P83110 = molecular target: T5, HTRA3, P83110
T5 sequence (P83110 354-453, limits assumed, looked up): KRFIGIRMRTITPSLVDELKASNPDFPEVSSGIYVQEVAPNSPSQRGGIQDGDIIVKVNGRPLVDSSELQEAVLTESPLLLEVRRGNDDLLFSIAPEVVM

GRIP1_7, Q9Y3R0 = molecular target: T6, GRIP1_7, Q9Y3R0
T6 sequence (Q9Y3R0 999-1096, limits assumed, looked up): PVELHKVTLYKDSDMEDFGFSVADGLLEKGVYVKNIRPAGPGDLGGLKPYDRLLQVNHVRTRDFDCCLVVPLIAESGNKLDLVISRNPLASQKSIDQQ

HTRA2, O43464 = molecular target: HTRA2, O43464
MAST1, Q9Y2H9 = molecular target: MAST1, Q9Y2H9
GRIP2_7, Q9C0E4 = molecular target: GRIP2_7, Q9C0E4
DLG2_2, Q15700 = molecular target: DLG2_2, Q15700
GRIP2_5, Q9C0E4 = molecular target: GRIP2_5, Q9C0E4
GRID2IP_1, A4D2P6 = molecular target: GRID2IP_1, A4D2P6
SNTG2, Q9NY99 = molecular target: T7, SNTG2, Q9NY99
T7 sequence (Q9NY99 68-166, limits assumed, looked up): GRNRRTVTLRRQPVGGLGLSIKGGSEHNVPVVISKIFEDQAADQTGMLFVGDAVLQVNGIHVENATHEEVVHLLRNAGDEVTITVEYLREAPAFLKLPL

SYNJ2BP, P57105 = molecular target: T8, SYNJ2BP, P57105
T8 sequence (P57105 8-110, limits assumed, looked up): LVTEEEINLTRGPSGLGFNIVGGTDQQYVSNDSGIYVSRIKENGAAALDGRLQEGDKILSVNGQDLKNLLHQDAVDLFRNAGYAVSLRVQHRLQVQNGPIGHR

MPDZ_12, O75970 = molecular target: T9, MPDZ_12, O75970
T9 sequence (O75970 1857-1958, limits assumed, looked up): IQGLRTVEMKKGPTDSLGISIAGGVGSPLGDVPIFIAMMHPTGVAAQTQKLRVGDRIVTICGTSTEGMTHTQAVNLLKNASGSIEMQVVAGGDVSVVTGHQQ

DLG1_3, Q12959 = molecular target: DLG1_3, Q12959
GORASP2, Q9H8Y8 = molecular target: GORASP2, Q9H8Y8
CARD11, Q9BXL7 = molecular target: T10, CARD11, Q9BXL7
T10 sequence (Q9BXL7 662-765, limits assumed, looked up): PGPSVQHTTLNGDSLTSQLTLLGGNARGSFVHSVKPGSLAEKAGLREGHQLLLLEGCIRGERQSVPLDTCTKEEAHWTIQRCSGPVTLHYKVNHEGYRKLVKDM

NHERF2_2, Q15599 = molecular target: NHERF2_2, Q15599
[1] = plain residues with an end cap or a label only (N-terminal biotin on a linker: ahx)
[2] = plain residues with an end cap or a label only (N-terminal biotin on a linker: ttds)

HTRA2, O43464, sequence (O43464 355-458): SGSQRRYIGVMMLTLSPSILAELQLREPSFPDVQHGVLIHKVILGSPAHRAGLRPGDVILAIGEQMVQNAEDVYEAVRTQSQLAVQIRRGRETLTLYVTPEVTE
GRIP2_5, Q9C0E4, sequence (Q9C0E4 544-642): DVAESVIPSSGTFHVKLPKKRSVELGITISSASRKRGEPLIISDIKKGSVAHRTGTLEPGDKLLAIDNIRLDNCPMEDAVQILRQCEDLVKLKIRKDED
MAGI2_5, Q86UL8, sequence (Q86UL8 915-1017): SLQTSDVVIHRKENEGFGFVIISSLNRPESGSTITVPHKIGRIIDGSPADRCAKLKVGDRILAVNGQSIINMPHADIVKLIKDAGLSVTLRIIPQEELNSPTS
FRMPD2_2, Q68DX3, sequence (Q68DX3 944-1038): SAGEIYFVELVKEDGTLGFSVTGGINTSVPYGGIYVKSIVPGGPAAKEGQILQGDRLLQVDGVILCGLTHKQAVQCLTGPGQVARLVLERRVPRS
GRID2IP_2, A4D2P6, sequence (A4D2P6 272-370): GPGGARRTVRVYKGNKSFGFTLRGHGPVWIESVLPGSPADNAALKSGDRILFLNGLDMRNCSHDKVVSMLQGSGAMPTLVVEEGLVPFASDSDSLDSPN
MAST1, Q9Y2H9, sequence (Q9Y2H9 962-1065): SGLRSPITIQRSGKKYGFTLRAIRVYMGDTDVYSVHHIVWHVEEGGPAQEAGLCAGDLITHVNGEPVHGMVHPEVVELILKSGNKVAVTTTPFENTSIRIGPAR
DLG1_3, Q12959, sequence (Q12959 457-571): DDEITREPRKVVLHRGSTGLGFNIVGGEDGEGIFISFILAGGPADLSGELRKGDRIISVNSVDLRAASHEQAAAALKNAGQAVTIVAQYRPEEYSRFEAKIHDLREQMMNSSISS
GORASP1, Q9BQQ3, sequence (Q9BQQ3 1-208): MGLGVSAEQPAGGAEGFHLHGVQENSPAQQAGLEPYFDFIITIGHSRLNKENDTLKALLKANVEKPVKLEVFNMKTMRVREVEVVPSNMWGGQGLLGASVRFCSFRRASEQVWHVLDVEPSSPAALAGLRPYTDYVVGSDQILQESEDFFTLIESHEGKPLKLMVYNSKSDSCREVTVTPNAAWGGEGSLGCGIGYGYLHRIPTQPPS
DLG4_3, P78352, sequence (P78352 306-403): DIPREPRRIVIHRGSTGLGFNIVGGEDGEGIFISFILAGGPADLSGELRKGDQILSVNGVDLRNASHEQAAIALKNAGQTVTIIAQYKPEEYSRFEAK
AHNAK1, Q09666, sequence (Q09666 4-100): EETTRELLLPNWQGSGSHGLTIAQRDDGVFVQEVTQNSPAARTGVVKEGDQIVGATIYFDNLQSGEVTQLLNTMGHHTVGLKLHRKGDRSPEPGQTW
MAGI2_2, Q86UL8, sequence (Q86UL8 410-522): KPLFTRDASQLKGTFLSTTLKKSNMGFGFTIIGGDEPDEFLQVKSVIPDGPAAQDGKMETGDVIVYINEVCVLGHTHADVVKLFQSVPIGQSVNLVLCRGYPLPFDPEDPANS
GRIP2_7, Q9C0E4, sequence (Q9C0E4 934-1023): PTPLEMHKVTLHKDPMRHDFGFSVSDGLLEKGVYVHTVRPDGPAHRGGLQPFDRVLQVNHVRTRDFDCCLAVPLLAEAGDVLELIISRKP
DLG2_2, Q15700, sequence (Q15700 189-283): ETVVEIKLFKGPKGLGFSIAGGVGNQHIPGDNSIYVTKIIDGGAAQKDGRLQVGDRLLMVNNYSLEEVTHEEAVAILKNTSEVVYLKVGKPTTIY
SCRIB_1, Q14160, sequence (Q14160 718-814): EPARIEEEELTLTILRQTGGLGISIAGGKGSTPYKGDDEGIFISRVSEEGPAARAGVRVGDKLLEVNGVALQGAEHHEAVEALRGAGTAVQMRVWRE
LDB3, O75112, sequence (O75112 1-94): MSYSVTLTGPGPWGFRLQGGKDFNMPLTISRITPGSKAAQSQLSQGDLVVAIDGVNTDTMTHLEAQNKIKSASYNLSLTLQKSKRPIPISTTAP
NHERF2_2, Q15599, sequence (Q15599 142-238): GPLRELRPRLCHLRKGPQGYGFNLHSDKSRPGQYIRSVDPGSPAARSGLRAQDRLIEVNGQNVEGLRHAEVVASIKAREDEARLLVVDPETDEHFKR
GRID2IP_1, A4D2P6, sequence (A4D2P6 1-87): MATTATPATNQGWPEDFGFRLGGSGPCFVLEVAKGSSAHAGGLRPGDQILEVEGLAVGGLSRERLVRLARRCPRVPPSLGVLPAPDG

ESLLLGPSNF [SHROOM4, Q9ULL8]
pKd (FRMPD2_2, Q68DX3; [1]): below the threshold
pKd (MAGI2_2, Q86UL8; [1]): below the threshold
pKd (SCRIB_1, Q14160; [1]): below the threshold
pKd (DLG4_3, P78352; [1]): below the threshold
pKd (MAGI2_5, Q86UL8; [1]): below the threshold
pKd (LDB3, O75112; [1]): below the threshold
pKd (AHNAK1, Q09666; [1]): below the threshold
pKd (SNTA1, Q13424; [1]): below the threshold
pKd (GORASP1, Q9BQQ3; [1]): below the threshold
pKd (GRID2IP_2, A4D2P6; [1]): below the threshold
pKd (TIAM2, Q8IVF5; [1]): 3.49
pKd (LIN7C, Q9NUP9; [1]): below the threshold
pKd (APBA3_1, O96018; [1]): below the threshold
pKd (HTRA3, P83110; [1]): below the threshold
pKd (GRIP1_7, Q9Y3R0; [1]): below the threshold
pKd (HTRA2, O43464; [1]): below the threshold
pKd (MAST1, Q9Y2H9; [1]): below the threshold
pKd (GRIP2_7, Q9C0E4; [1]): below the threshold
pKd (DLG2_2, Q15700; [1]): below the threshold
pKd (GRIP2_5, Q9C0E4; [1]): below the threshold
pKd (GRID2IP_1, A4D2P6; [1]): below the threshold
pKd (SNTG2, Q9NY99; [1]): below the threshold
pKd (SYNJ2BP, P57105; [1]): below the threshold
pKd (MPDZ_12, O75970; [1]): below the threshold
pKd (DLG1_3, Q12959; [1]): below the threshold
pKd (GORASP2, Q9H8Y8; [1]): below the threshold
pKd (CARD11, Q9BXL7; [1]): below the threshold
pKd (NHERF2_2, Q15599; [1]): below the threshold

QRQARSETLV [HPV59-E6, Q81964]
pKd (FRMPD2_2, Q68DX3; [2]): 3.95
pKd (MAGI2_2, Q86UL8; [2]): 6.07
pKd (SCRIB_1, Q14160; [2]): 3.82
pKd (DLG4_3, P78352; [2]): 4.21
pKd (MAGI2_5, Q86UL8; [2]): 5.02
pKd (LDB3, O75112; [2]): below the threshold
pKd (AHNAK1, Q09666; [2]): below the threshold
pKd (SNTA1, Q13424; [2]): 3.99
pKd (GORASP1, Q9BQQ3; [2]): below the threshold
pKd (GRID2IP_2, A4D2P6; [2]): 3.64
pKd (TIAM2, Q8IVF5; [2]): below the threshold
pKd (LIN7C, Q9NUP9; [2]): 3.87
pKd (APBA3_1, O96018; [2]): below the threshold
pKd (HTRA3, P83110; [2]): 3.69
pKd (GRIP1_7, Q9Y3R0; [2]): below the threshold
pKd (HTRA2, O43464; [2]): below the threshold
pKd (MAST1, Q9Y2H9; [2]): 4.62
pKd (GRIP2_7, Q9C0E4; [2]): below the threshold
pKd (DLG2_2, Q15700; [2]): 4.97
pKd (GRIP2_5, Q9C0E4; [2]): below the threshold
pKd (GRID2IP_1, A4D2P6; [2]): below the threshold
pKd (SNTG2, Q9NY99; [2]): 4.05
pKd (SYNJ2BP, P57105; [2]): 4.81
pKd (MPDZ_12, O75970; [2]): below the threshold
pKd (DLG1_3, Q12959; [2]): 3.82
pKd (GORASP2, Q9H8Y8; [2]): 4.34
pKd (CARD11, Q9BXL7; [2]): below the threshold
pKd (NHERF2_2, Q15599; [2]): below the threshold

SDSSGQEYSL [KCTD3, Q9Y597]
pKd (FRMPD2_2, Q68DX3; [1]): below the threshold
pKd (MAGI2_2, Q86UL8; [1]): below the threshold
pKd (SCRIB_1, Q14160; [1]): below the threshold
pKd (DLG4_3, P78352; [1]): below the threshold
pKd (MAGI2_5, Q86UL8; [1]): below the threshold
pKd (LDB3, O75112; [1]): below the threshold
pKd (AHNAK1, Q09666; [1]): below the threshold
pKd (SNTA1, Q13424; [1]): below the threshold
pKd (GORASP1, Q9BQQ3; [1]): below the threshold
pKd (GRID2IP_2, A4D2P6; [1]): below the threshold
pKd (TIAM2, Q8IVF5; [1]): below the threshold
pKd (LIN7C, Q9NUP9; [1]): below the threshold
pKd (APBA3_1, O96018; [1]): below the threshold
pKd (HTRA3, P83110; [1]): below the threshold
pKd (GRIP1_7, Q9Y3R0; [1]): below the threshold
pKd (HTRA2, O43464; [1]): below the threshold
pKd (MAST1, Q9Y2H9; [1]): below the threshold
pKd (GRIP2_7, Q9C0E4; [1]): below the threshold
pKd (DLG2_2, Q15700; [1]): below the threshold
pKd (GRIP2_5, Q9C0E4; [1]): below the threshold
pKd (GRID2IP_1, A4D2P6; [1]): below the threshold
pKd (SNTG2, Q9NY99; [1]): below the threshold
pKd (SYNJ2BP, P57105; [1]): below the threshold
pKd (MPDZ_12, O75970; [1]): below the threshold
pKd (DLG1_3, Q12959; [1]): below the threshold
pKd (GORASP2, Q9H8Y8; [1]): below the threshold
pKd (CARD11, Q9BXL7; [1]): below the threshold
pKd (NHERF2_2, Q15599; [1]): below the threshold
